Test results taken from patent US20200407445A1 (ITEOS THERAPEUTICS, published 2020).
Blank lines part the entries; values can stand above or below the binder they belong to.

Legend:
[1] = molecular target: T1, Mouse TIGIT-Fc (mouse, UniProt P86176 29-148, limits assumed); assay: ForteBio BLI, Fab KD, monovalent
T1 construct: not shown: Fc part
T1 sequence (looked up): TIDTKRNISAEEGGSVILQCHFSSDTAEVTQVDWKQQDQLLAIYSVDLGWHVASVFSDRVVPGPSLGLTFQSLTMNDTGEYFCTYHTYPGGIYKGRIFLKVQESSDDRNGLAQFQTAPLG

[2] = molecular target: T2, Cyno TIGIT-Fc (cynomolgus, UniProt A0A7N9I9V4 89-209); assay: ForteBio BLI, Fab KD, monovalent
T2 construct: not shown: Fc part
T2 sequence (A0A7N9I9V4 entry or part of it): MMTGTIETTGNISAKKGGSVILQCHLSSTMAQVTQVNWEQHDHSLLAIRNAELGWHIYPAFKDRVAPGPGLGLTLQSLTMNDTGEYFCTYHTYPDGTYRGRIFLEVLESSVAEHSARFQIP

[3] = molecular target: T3, Human TIGIT-His (human, UniProt Q495A1 22-141, biotinylated in the ForteBio Fab assay); assay: ForteBio BLI, Fab KD, monovalent
T3 construct: bought (Creative Biomart); also called Biotinylated Human TIGIT HIS; TIGIT-His monomer; not shown: His tag
T3 sequence (looked up): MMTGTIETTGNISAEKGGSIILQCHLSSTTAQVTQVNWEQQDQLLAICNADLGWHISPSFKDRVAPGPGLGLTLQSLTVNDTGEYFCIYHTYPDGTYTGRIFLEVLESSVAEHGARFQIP

[4] = molecular target: T4, human TIGIT expressed on cells (human, UniProt Q495A1 22-244); assay: cell-based or functional assay
T4 sequence (looked up): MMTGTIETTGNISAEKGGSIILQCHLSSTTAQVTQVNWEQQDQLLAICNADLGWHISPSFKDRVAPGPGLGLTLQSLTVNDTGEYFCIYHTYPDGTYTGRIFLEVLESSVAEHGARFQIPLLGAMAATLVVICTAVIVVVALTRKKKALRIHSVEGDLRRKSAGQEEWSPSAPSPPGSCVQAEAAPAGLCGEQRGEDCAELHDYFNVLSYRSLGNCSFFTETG

[5] = molecular target: T4, human TIGIT expressed on cells; assay: cell-based or functional assay; remark: listed apart in the source
[6] = molecular target: T4, human TIGIT expressed on cells; assay: flow cytometry, competition with CD155-His (15 ug/ml) on Jurkat-hTIGIT
[7] = molecular target: T4, human TIGIT expressed on cells; assay: flow cytometry on Jurkat-hTIGIT
Procedure: Antibodies were incubated with the cells for 20 min at 4° C. in FACS buffer. […] Fluorescence intensity was analysed using LSR BD Fortessa and cell binding was recorded as the median fluorescence intensity of PE in cells expressing TIGIT at their surface.
The half-maximal concentration of binding (EC50) to Jurkat-hTIGIT was calculated using a four-variable curve-fit equation in Prism.

[8] = molecular target: T5, recombinant human TIGIT protein (construct not stated) (human, UniProt Q495A1 22-141, limits assumed); assay: Biacore T200, IgG captured by anti-human Fc, antigen in solution, 1:1 kinetic model
T5 construct: also called hTIGIT (Creative Biomart); recombinant TIGIT protein
T5 sequence (looked up): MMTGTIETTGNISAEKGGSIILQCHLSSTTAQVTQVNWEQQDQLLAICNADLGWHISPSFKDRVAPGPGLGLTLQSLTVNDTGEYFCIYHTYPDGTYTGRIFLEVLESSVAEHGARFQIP
Procedure: Biosensor analysis was conducted at 25° C. in a HBS-EP buffer system (10 mM HEPES pH 7.3, 150 mM NaCl, 3 mM EDTA, 0.05% Tween20) using Biacore T200 technology, CMS sensor chip (run at Novalix, France). The sample hotel was maintained at 8° C. Goat anti-human IgG capture antibody (Fcγ fragment specific, Jackson ImmunoResearch Laboratories) was immobilized (10000 RU) to both flow cells of the sensor chip using standard amine coupling chemistry. This surface type provided a format for reproducibly capturing fresh analysis antibody after each regeneration step. Flow cell 2 was used to analyse captured antibody while flow cell 1 was used as a reference flow cell. […] Two blank (buffer) injections also were run and used to assess and subtract system artefacts. The association (300 s) and dissociation (600 s) phases for all antigen concentrations were performed at a flow rate of 30 uL/min. The surface was regenerated with three sequential injections (15 s, 15 s and 60 s) of 10 mM glycine-HCl, pH 1.5. The obtained sensorgrams were fitted globally to a 1:1 model (assuming the same kinetic values for all applied concentrations).

[9] = molecular target: T4, human TIGIT expressed on cells; assay: flow cytometry, primary CD8+ T cells of healthy human PBMC, MFI
Procedure: Isolated human PBMCs from healthy volunteers were analysed for binding by antagonist anti-TIGIT antibodies. Cells were distributed at 1×10⁵ cells per well. Cells were incubated with anti-CD16 (Clone 3G8, BioLegend 302002), CD32 (Clone FLI8.26, BD Bioscience 557333) and CD64 (BD Bioscience 555525) at room temperature for 10 min, and the indicated anti-human TIGIT antibody clones were directly added at a final concentration of 8; 4; 2; 1; 0.5; 0.25; 0.125; 0.062; 0.031; 0.016; 8×10⁻³ and 4×10⁻³ nM in FACS buffer and incubated for 20 min at 4° C. […] Then, cells were washed and incubated with the following antibodies and LVD mix: anti-CD4-PercP-Cy5.5 (clone A161A1, BioLegend 357414); anti-CD8-BV510 (clone SK1, BD Bioscience 563919) and LVD efluor 660 (eBioscience 65-0864-18).
The EC50 values for binding to CD8+ human primary T cells were calculated using the MFI signal on living TIGIT+CD8+ T cells.

[10] = molecular target: T4, human TIGIT expressed on cells; assay: flow cytometry, primary CD8+ T cells of cancer patients' PBMC, MFI
Procedure: Cells were distributed at 1×10^5 cells per well. […] Then, cells were washed and incubated with the following antibodies and life viability dye (LVD) mix: anti-CD4-PercP-Cy5.5 (clone A161A1, BioLegend 357414); anti-CD8-BV510 (clone SK1, BD Bioscience 563919) and LVD efluor 520 (eBioscience 65-0867-14). Cells were washed and fixed and surface staining was quantified using BD LSR Fortessa. Flow cytometry data was analysed using FlowJo V10.1. TIGIT MFI on gated LVD-TIGIT+CD8+ cells was used to calculate EC50 values.

B1: Fab of anti-TIGIT clone 29523 (Fab, V domains shown)
VH: EVQLVESGGGVVQPGRSLRLSCAASGFTFGSYYMHWVRQAPGKGLEWVAVIWPDGSNKLYADSVKGRFTISRDNSKNTLYLQMNSLRAEDTALYYCAKPVPKSRALDVWGQGTMVTVSS
VL: DIQLTQSPSSVSASVGDRVTITCRASQGISSWLAWYQQKPGKAPKLLIYGASSLQSGVPSRFSGSGSGTDFTLTISSLQPEDFATYYCQQAFYLPWTFGGGTKVEIK
Kd [1]: 18.9 nM
Kd [2]: 27.9 nM
Kd [3]: 3.84 nM

B2: Fab of anti-TIGIT clone 29520 (Fab, V domains shown)
VH: QVQLVESGGGLVQPGRSLRLSCAASGFTFRDYAMHWVRQAPGKGLEWVSGITWNSGLIGYADSVKGRFTISRDNAKNSLYLQMNSLRAEDTALYYCAKPVPRLRGLDVWGQGTMVTVSS
VL: DIQLTQSPSSVSASVGDRVTITCRASQGISSWLAWYQQKPGKAPKLLIYGASSLQSGVPSRFSGSGSGTDFTLTISSLQPEDFATYYCQQAFYLPWTFGGGTKVEIK
Kd [1]: 1.95 nM
Kd [2]: 2.68 nM
Kd [3]: 1.31 nM

B5: Fab of anti-TIGIT clone 29513 (Fab, V domains shown)
VH: QVQLVQSGAEVKKPGSSVKVSCKASGGTFQNYAISWVRQAPGQGLEWMGVIVPIFGTANYAQKFQGRVTVTADESTSTAYMELSSLRSEDTAVYYCARLHLGQKAYYGMDVWGQGTTVTVSS
VL: DIQMTQSPSSLSASVGDRVTITCRASQSISSYLNWYQQKPGKAPKLLIYAASSLQSGVPSRFSGSGSGTDFTLTISSLQPEDFATYYCQQRYVFPPTFGGGTKVEIK
Kd [1]: 85.5 nM
Kd [2]: 9.56 nM
Kd [3]: 0.774 nM

B8: 22G2 (comparative anti-TIGIT antibody, human IgG1) (antibody, V domains shown)
VH: QVHLQESGPGLVKPSETLSLTCTVSGGSVSSGIYYWSWIRQPPGKGLEWIGYIYYSGSTNYNPSLKSRVTISVDTSKNQFSLKLSSVTAADTAVYYCARDYYVSGNYYNVDYYFFGVDVWGQGTTVTVSS
VL: EIVLTQSPATLSLSPGERATLSCRASQSVSSYLAWYQQKPGQAPRLLIYDASNRATGIPARFSGSGSGTDFTLTISSLEPEDFAVYYCQQRSNWPPLFTFGPGTKVDIK
notes: from WO2016/106302; made in HEK cells as human IgG1
EC50 (nM), luciferase, Jurkat-hTIGIT [4]: 5.2 nM
Fold change of EC50 over EC50 of best clone (31282_up) [4]: 1.6 fold
Induction over Isotype control (fold change), luciferase, Jurkat-hTIGIT + CD155 aAPC/CHO-K1 [4]: 5.3 fold
EC50 (nM), IFNg, human primary CD8+ T cells [5]: 0.41 nM
Fold change of EC50 over EC50 of best clone (31282_wu) [5]: 3.1 fold
Induction over isotype control (fold change), IFNg, human primary CD8+ T cells + CD155 aAPC/CHO-K1 [5]: 1.5 fold
Fold change of IC50 over IC50 of best clone (31282_up) [6]: 2.2 fold
IC50 [6]: 0.09 nM
EC50 [7]: 0.32 nM
Fold change of EC50 over EC50 of best clone (31282_wu) [7]: 3 fold
Kd [8]: 0.071 nM
koff [8]: 0.000178 s⁻¹
EC50 [9]: 1.17 nM
Fold change of EC50 over EC50 of best clone (31282_wu) [9]: 6.1 fold
EC50 [10]: 0.37 nM
Fold change of EC50 over EC50 of best clone (31282) [10]: 3.1 fold

B9: TIG1 (comparative anti-TIGIT antibody, human IgG1) (antibody, V domains shown)
VH: DVQLVESGGGLVQPGGSRKLSCAASGFTFSNFGMHWVRQAPEKGLEWVAFISSGSSSIYYADTVKGRFTISRDNPKNTLFLQMTSLRSEDTAMYYCARMRLDYYAMDYWGQGTSVTVSS
VL: DVQITQSPSYLAASPGETITINCRASKSISKYLAWYQEKPGKTNKLLIYSGSTLQSGIPSRFSGSGSGTDFTLTISSLEPEDFAMYYCQQHNEYPWTFGGGTKLEIK
notes: from WO2017/152088; made in HEK cells as human IgG1
Fold change of IC50 over IC50 of best clone (31282_up) [6]: 1.6 fold
IC50 [6]: 0.06 nM
EC50 [7]: 0.17 nM
Fold change of EC50 over EC50 of best clone (31282_wu) [7]: 1.6 fold
Kd [8]: 2.49 nM
koff [8]: 0.0131 s⁻¹
EC50 [9]: 0.38 nM
Fold change of EC50 over EC50 of best clone (31282_wu) [9]: 2 fold
EC50 [10]: 0.33 nM
Fold change of EC50 over EC50 of best clone (31282) [10]: 2.7 fold

Continued by falling Kd [3], values first:

Kd [1]: 26.7 nM
binding result [2]: no binding
Kd [3]: 40.6 nM
B3: Fab of anti-TIGIT clone 26493 (Fab, V domains shown)
VH: EVQLVESGGGLVQPGRSLRLSCAASGFTFGDYAMHWVRQAPGKGLEWVSGITWNSGSIGYADSVKGRFTISRDNAKNSLYLQMNSLRAEDTALYYCAKPVPKSRGLDVWGQGTMVTVSS
VL: DIQLTQSPSSVSASVGDRVTITCRASQGISSWLAWYQQKPGKAPKLLIYGASSLQSGVPSRFSGSGSGTDFTLTISSLQPEDFATYYCQQAFYLPWTFGGGTKVEIK

binding result [1]: no binding
binding result [2]: no binding
Kd [3]: 13.1 nM
B7: Fab of anti-TIGIT clone 26432 (Fab, V domains shown)
VH: QVQLVQSGAEVKKPGSSVKVSCKASGGTFSSYAISWVRQAPGQGLEWMGGIIPIFGTANYAQKFQGRVTITADESTSTAYMELSSLRSEDTAVYYCAREAQSYRVPFDIWGQGTMVTVSS
VL: EIVMTQSPATLSVSPGERATLSCRASQSVSSNLAWYQQKPGQAPRLLIYGASTRATGIPARFSGSGSGTEFTLTISSLQSEDFAVYYCQQYAIWPPFTFGGGTKVEIK

Kd [1]: 20.2 nM
Kd [2]: 17.6 nM
Kd [3]: 1.33 nM
B4: Fab of anti-TIGIT clone 29527 (Fab, V domains shown)
VH: QVQLVESGGGVVQPGRSLRLSCAASGFTFSSSYMHWVRQAPGKGLEWVAVIGADGSNKYYADSVEGRFTISRDNSKNTLYLQMNSLRAEDTALYYCAKPVPRRRGLDVWGQGTMVTVSS
VL: DIQLTQSPSSVSASVGDRVTITCRASQGISSWLAWYQQKPGKAPKLLIYGASSLQSGVPSRFSGSGSGTDFTLTISSLQPEDFATYYCQQAFYLPWTFGGGTKVEIK

Kd [1]: 91.8 nM
Kd [2]: 1.26 nM
Kd [3]: 0.703 nM
B6: Fab of anti-TIGIT clone 29478 (Fab, V domains shown)
VH: EVQLVESGGGVVQPGRSLRLSCAASGFTFESYGMVWVRQAPGKGLEWVASILYDGSNRYYADSVKGRFTVSRDNSKNTLYLQMNSLRAEDTAVYYCARVSYYYDSVELRWAEYFQHWGQGTLVTVSS
VL: EIVLTQSPATLSLSPGERATLSCRASQSVSSYLAWYQQKPGQAPRLLIYDASKRATGIPARFSGSGSGTDFTLTISSLEPEDFAVYYCQQVHNFPLTFGGGTKVEIK
